Here are results for three substances from US20150196637A1.

Like-named read-outs stand apart in the source and are kept apart here.

The target of experiment [1] is IgG1 heavy chain with CH3 construct 67 (K360D) and common light chain (human) [IgG part: P01857].
Experiment [2] concerns the target IgG1 heavy chain with CH3 construct 8 (Q347K) and common light chain (human) [IgG part: P01857].
The target in experiment [3] is IgG1 heavy chain with CH3 construct 2 (K392D, K409D) and common light chain (human) [IgG part: P01857].
The target is the same in experiment [4]. In words: native MS, transfection #11 of Table 24; fibrinogen VH on construct 1 with fibrinogen VH on construct 2.
Experiment [5] addresses IgG1 heavy chain with CH3 construct 61 (L351K) and common light chain (human) [IgG part: P01857].
Experiment [6] deals with IgG1 heavy chain with CH3 construct 64 (T366D) and common light chain (human) [IgG part: P01857].

Turning to “IgG1 heavy chain with CH3 construct 8 (Q347K) and common light chain (from UniProt P01857-1)”, the AC found (%) in experiment [1] stood at 41%. Moreover, in experiment [2], the AA found (%) was 34%.
Regarding “IgG1 heavy chain with CH3 construct 1 (E356K, D399K) and common light chain (from UniProt P01857-1)”, the % of the mixture (peak height) in experiment [3] stood at 67%; in experiment [4], 61%.
Turning to “IgG1 heavy chain with CH3 construct 61 (L351K) and common light chain (from UniProt P01857-1)”, the AA found (%) in experiment [5] came out at 30%. The substance further gave an AC found (%) in experiment [6] of 52%.
